In PMC7489885 (Cell, 2020):

Target: SARS-CoV-2 RBD (residues 319-541) with an N-terminal His6 tag (SARS-CoV-2, UniProt P0DTC2)
Test: crystal structure

B1: BD-236 Fab (Fab, V domains shown)
VH: EVQLVESGGGLIQPGGSLRLSCAASGITVSSNYMSWVRQAPGKGLEWVSVIYSGGSTDYADSVKGRFTISRDKSKNTLYLQMNSLRAEDTAVYYCARDLGEAGGMDVWGQGTTVTVSS
VL: AIQLTQSPSSLSASVGDRVTITCRASQGISSYLAWYQQKPGKAPKLLIYAASTLQSGVPSRFSGSGSGTDFTLTISSLQPEDFATYYCQQLNSYPPAFGGGTKVEIK
- binding result: binds
